Reference: paper PMC4755347

Target: C. jejuni outer membrane channel CmeC (C. jejuni) (UniProt Q8RTE3)
Experiment: crystal structure

## C. jejuni outer membrane channel CmeC (from UniProt Q8RTE3 1-492) (natural protein)
  stoichiometry N: 3
